B1: human TFIIIC subunit TFIIIC63 (natural protein)
chain: MAAEAADLGLGAAVPVELRRERRMVCVEYPGVVRDVAKMLPTLGGEEGVSRIYADPTKRLELYFRPKDPYCHPVCANRFSTSSLLLRIRKRTRRQKGVLGTEAHSEVTFDMEILGIISTIYKFQGMSDFQYLAVHTEAGGKHTSMYDKVLMLRPEKEAFFHQELPLYIPPPIFSRLDAPVDYFYRPETQHREGYNNPPISGENLIGLSRARRPHNAIFVNFEDEEVPKQPLEAAAQTWRRVCTNPVDRKVEEELRKLFDIRPIWSRNAVKANISVHPDKLKVLLPFIAYYMITGPWRSLWIRFGYDPRKNPDAKIYQVLDFRIRCGMKHGYAPSDLPVKAKRSTYNYSLPITVKKTSSQLVTMHDLKQGLGPSGTSGARKPASSKYKLKDSVYIFREGALPPYRQMFYQLCDLNVEELQKIIHRNDGAENSCTERDGWCLPKTSDELRDTMSLMIRQTIRSKRPALFSSSAKADGGKEQLTYESGEDEEDEEEEEEEEEDFKPSDGSENEMETEILDYV
notes: TFIIIC63, subunit of human TFIIIC; coding gene from DNASU, codon-optimized for insect cells; No truncation is described; also called τ95 in yeast (homolog); GTC3C5 (so in the source); source: Sf21 insect cells, baculovirus, coexpressed with the other five hTFIIIC subunits; purified (anti-FLAG M2 agarose, Capto HiRes Q)
B2: human TFIIIC subunit TFIIIC35 (natural protein)
chain: MAAAADERSPEDGEDEEEEEQLVLVELSGIIDSDFLSKCENKCKVLGIDTERPILQVDSCVFAGEYEDTLGTCVIFEENVEHADTEGNNKTVLKYKCHTMKKLSMTRTLLTEKKEGEENIGGVEWLQIKDNDFSYRPNMICNFLHENEDEEVVASAPDKSLELEEEEIQMNDSSNLSCEQEKPMHLEIEDSGPLIDIPSETEGSVFMETQMLP
notes: TFIIIC35, subunit of human TFIIIC; the ordered GTF3C6 gene encoded a serine in position 1, which was replaced by methionine; No truncation is described; also called τ55 in yeast (homolog); GTF3C6; source: Sf21 insect cells, baculovirus, coexpressed with the other five hTFIIIC subunits; purified (anti-FLAG M2 agarose, Capto HiRes Q)
B3: human TFIIIC subunit TFIIIC102 (natural protein)
chain: MSGFSPELIDYLEGKISFEEFERRREERKTREKKSLQEKGKLSAEENPDDSEVPSSSGINSTKSQDKDVNEGETSDGVRKSVHKVFASMLGENEDDEEEEEEEEEEEEEEETPEQPTAGDVFVLEMVLNRETKKMMKEKRPRSKLPRALRGLMGEANIRFARGEREEAILMCMEIIRQAPLAYEPFSTLAMIYEDQGDMEKSLQFELIAAHLNPSDTEEWVRLAEMSLEQDNIKQAIFCYTKALKYEPTNVRYLWERSSLYEQMGDHKMAMDGYRRILNLLSPSDGERFMQLARDMAKSYYEANDVTSAINIIDEAFSKHQGLVSMEDVNIAAELYISNKQYDKALEIITDFSGIVLEKKTSEEGTSEENKAPENVTCTIPDGVPIDITVKLMVCLVHLNILEPLNPLLTTLVEQNPEDMGDLYLDVAEAFLDVGEYNSALPLLSALVCSERYNLAVVWLRHAECLKALGYMERAAESYGKVVDLAPLHLDARISLSTLQQQLGQPEKALEALEPMYDPDTLAQDANAAQQELKLLLHRSTLLFSQGKMYGYVDTLLTMLAMLLKVAMNRAQVCLISSSKSGERHLYLIKVSRDKISDSNDQESANCDAKAIFAVLTSVLTKDDWWNLLLKAIYSLCDLSRFQEAELLVDSSLEYYSFYDDRQKRKELEYFGLSAAILDKNFRKAYNYIRIMVMENVNKPQLWNIFNQVTMHSQDVRHHRFCLRLMLKNPENHALCVLNGHNAFVSGSFKHALGQYVQAFRTHPDEPLYSFCIGLTFIHMASQKYVLRRHALIVQGFSFLNRYLSLRGPCQESFYNLGRGLHQLGLIHLAIHYYQKALELPPLVVEGIELDQLDLRRDIAYNLSLIYQSSGNTGMAQTLLYTYCSI
notes: TFIIIC102, subunit of human TFIIIC; No truncation is described; also called τ131 in yeast (homolog); GTF3C3; source: Sf21 insect cells, baculovirus, coexpressed with the other five hTFIIIC subunits; purified (anti-FLAG M2 agarose, Capto HiRes Q)
B4: human TFIIIC subunit TFIIIC90 (natural protein)
chain: MNTADQARVGPADDGPAPSGEEEGEGGGEAGGKEPAADAAPGPSAAFRLMVTRREPAVKLQYAVSGLEPLAWSEDHRVSVSTARSIAVLELICDVHNPGQDLVIHRTSVPAPLNSCLLKVGSKTEVAECKEKFAASKDPTVSQTFMLDRVFNPEGKALPPMRGFKYTSWSPMGCDANGRCLLAALTMDNRLTIQANLNRLQWVQLVDLTEIYGERLYETSYRLSKNEAPEGNLGDFAEFQRRHSMQTPVRMEWSGICTTQQVKHNNECRDVGSVLLAVLFENGNIAVWQFQLPFVGKESISSCNTIESGITSPSVLFWWEYEHNNRKMSGLIVGSAFGPIKILPVNLKAVKGYFTLRQPVILWKEMDQLPVHSIKCVPLYHPYQKCSCSLVVAARGSYVFWCLLLISKAGLNVHNSHVTGLHSLPIVSMTADKQNGTVYTCSSDGKVRQLIPIFTDVALKFEHQLIKLSDVFGSVRTHGIAVSPCGAYLAIITTEGMINGLHPVNKNYQVQFVTLKTFEEAAAQLLESSVQNLFKQVDLIDLVRWKILKDKHIPQFLQEALEKKIESSGVTYFWRFKLFLLRILYQSMQKTPSEALWKPTHEDSKILLVDSPGMGNADDEQQEEGTSSKQVVKQGLQERSKEGDVEEPTDDSLPTTGDAGGREPMEEKLLEIQGKIEAVEMHLTREHMKRVLGEVYLHTWITENTSIPTRGLCNFLMSDEEYDDRTARVLIGHISKKMNKQTFPEHCSLCKEILPFTDRKQAVCSNGHIWLRCFLTYQSCQSLIYRRCLLHDSIARHPAPEDPDWIKRLLQSPCPFCDSPVF
notes: TFIIIC90, subunit of human TFIIIC; coding gene from DNASU, codon-optimized for insect cells; No truncation is described; also called τ60 in yeast (homolog); source: Sf21 insect cells, baculovirus, coexpressed with the other five hTFIIIC subunits; purified (anti-FLAG M2 agarose, Capto HiRes Q)
B5: human TFIIIC subunit TFIIIC110 (natural protein)
chain: MDTCGVGYVALGEAGPVGNMTVVDSPGQEVLNQLDVKTSSEMTSAEASVEMSLPTPLPGFEDSPDQRRLPPEQESLSRLEQPDLSSEMSKVSKPRASKPGRKRGGRTRKGPKRPQQPNPPSAPLVPGLLDQSNPLSTPMPKKRGRKSKAELLLLKLSKDLDRPESQSPKRPPEDFETPSGERPRRRAAQVALLYLQELAEELSTALPAPVSCPEGPKVSSPTKPKKIRQPAACPGGEEVDGAPRDEDFFLQVEAEDVEESEGPSESSSEPEPVVPRSTPRGSTSGKQKPHCRGMAPNGLPNHIMAPVWKCLHLTKDFREQKHSYWEFAEWIPLAWKWHLLSELEAAPYLPQEEKSPLFSVQREGLPEDGTLYRINRFSSITAHPERWDVSFFTGGPLWALDWCPVPEGAGASQYVALFSSPDMNETHPLSQLHSGPGLLQLWGLGTLQQESCPGNRAHFVYGIACDNGCIWDLKFCPSGAWELPGTPRKAPLLPRLGLLALACSDGKVLLFSLPHPEALLAQQPPDAVKPAIYKVQCVATLQVGSMQATDPSECGQCLSLAWMPTRPHQHLAAGYYNGMVVFWNLPTNSPLQRIRLSDGSLKLYPFQCFLAHDQAVRTLQWCKANSHFLVSAGSDRKIKFWDLRRPYEPINSIKRFLSTELAWLLPYNGVTVAQDNCYASYGLCGIHYIDAGYLGFKAYFTAPRKGTVWSLSGSDWLGTIAAGDISGELIAAILPDMALNPINVKRPVERRFPIYKADLIPYQDSPEGPDHSSASSGVPNPPKARTYTETVNHHYLLFQDTDLGSFHDLLRREPMLRMQEGEGHSQLCLDRLQLEAIHKVRFSPNLDSYGWLVSGGQSGLVRIHFVRGLASPLGHRMQLESRAHFNAMFQPSSPTRRPGFSPTSHRLLPTP
notes: TFIIIC110, subunit of human TFIIIC; No truncation is described; also called τ91 in yeast (homolog); GTF3C2; source: Sf21 insect cells, baculovirus, coexpressed with the other five hTFIIIC subunits; purified (anti-FLAG M2 agarose, Capto HiRes Q)

For data set [1], the target named is T1, human TFIIIC subunit TFIIIC220 (human, UniProt Q12789 1-2109).
T1 construct: TFIIIC220, largest subunit of human TFIIIC; 2109 amino acids as printed; No truncation is described; the expected mass of 624 kDa is that of the intact complex; also called τ138 in yeast (homolog); GTF3C1; source: Sf21 insect cells, baculovirus, coexpressed with the other five hTFIIIC subunits; purified (anti-FLAG M2 agarose, Capto HiRes Q); not shown: 3x FLAG, C-terminal, kept
T1 sequence (Q12789 whole entry, the tested form may be a part): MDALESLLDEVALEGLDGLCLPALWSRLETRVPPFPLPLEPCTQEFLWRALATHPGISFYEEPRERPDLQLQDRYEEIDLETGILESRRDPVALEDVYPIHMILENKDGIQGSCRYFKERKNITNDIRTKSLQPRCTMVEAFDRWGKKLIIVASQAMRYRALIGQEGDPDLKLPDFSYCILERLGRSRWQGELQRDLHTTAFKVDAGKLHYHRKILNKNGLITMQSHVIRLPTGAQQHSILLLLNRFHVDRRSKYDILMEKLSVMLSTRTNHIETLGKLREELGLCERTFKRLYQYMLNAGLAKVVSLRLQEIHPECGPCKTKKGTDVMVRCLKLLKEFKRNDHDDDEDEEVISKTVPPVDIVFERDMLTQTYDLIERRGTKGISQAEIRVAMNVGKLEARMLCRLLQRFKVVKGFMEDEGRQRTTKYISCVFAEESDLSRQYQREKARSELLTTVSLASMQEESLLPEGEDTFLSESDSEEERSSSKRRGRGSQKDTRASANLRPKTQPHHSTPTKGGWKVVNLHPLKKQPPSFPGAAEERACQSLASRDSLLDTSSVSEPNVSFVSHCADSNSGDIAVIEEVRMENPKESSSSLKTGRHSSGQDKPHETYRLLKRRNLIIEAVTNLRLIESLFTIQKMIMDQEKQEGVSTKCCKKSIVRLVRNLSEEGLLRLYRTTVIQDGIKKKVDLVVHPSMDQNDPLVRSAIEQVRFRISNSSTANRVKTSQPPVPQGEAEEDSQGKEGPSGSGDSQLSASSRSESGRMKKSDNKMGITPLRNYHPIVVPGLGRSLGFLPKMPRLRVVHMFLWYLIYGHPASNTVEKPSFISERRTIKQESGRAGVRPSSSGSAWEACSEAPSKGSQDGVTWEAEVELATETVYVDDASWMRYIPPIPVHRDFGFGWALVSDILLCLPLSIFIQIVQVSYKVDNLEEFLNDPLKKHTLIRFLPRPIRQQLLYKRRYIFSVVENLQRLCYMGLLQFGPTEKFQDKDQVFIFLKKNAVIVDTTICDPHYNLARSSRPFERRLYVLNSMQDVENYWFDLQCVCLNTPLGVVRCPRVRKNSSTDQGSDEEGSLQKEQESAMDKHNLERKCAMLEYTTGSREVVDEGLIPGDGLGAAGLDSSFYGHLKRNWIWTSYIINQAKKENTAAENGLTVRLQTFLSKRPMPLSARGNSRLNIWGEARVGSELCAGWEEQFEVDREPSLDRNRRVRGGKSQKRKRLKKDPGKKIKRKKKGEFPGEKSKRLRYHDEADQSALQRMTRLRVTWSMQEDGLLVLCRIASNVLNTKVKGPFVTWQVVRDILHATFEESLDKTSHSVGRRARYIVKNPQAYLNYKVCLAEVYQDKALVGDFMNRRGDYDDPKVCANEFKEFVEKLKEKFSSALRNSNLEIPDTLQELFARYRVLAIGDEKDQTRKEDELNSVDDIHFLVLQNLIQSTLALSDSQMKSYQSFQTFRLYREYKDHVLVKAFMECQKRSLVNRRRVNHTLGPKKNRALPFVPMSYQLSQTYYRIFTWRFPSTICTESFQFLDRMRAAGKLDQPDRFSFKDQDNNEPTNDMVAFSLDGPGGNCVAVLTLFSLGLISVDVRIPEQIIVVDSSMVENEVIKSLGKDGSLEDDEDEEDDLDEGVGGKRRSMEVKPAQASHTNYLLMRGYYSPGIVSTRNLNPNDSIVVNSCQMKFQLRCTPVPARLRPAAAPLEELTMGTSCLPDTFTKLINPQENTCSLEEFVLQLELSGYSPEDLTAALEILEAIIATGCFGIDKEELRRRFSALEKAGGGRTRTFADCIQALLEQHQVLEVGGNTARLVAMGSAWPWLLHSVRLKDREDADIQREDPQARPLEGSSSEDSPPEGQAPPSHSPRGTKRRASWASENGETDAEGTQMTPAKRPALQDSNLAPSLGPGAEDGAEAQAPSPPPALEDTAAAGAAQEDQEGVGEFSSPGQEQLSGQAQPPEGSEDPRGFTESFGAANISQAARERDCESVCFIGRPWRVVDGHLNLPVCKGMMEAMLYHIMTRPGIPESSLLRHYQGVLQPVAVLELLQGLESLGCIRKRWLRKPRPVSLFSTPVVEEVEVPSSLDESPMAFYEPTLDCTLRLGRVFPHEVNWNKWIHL
Put plainly: mass photometry; purified hTFIIIC alone; 1 μl of sample at 400 nM added to 19 μl of 20 mM Hepes pH 8, 150 mM KCl, 2 mM MgCl2, 5 mM DTT; Refeyn TwoMP; nanomolar concentrations. As to conditions: both partners purified.

Data set [2] concerns the target B1. Put plainly: cryo-EM structure; purified hTFIIIC (3.17 μM) alone or with human TRR-TCT3-2 tRNA gene DNA at a 1:1 molar ratio; EM buffer 20 mM Hepes pH 8, 225 mM KCl, 2 mM MgCl2, 5 mM DTT; 0.1% octyl-β-glucoside; separate reconstructions of τA and of dimeric τB. The following applies: both partners purified.
Data set [3] concerns the molecule itself. Described as above.

As for B1, the binding result in data set [1] is listed as “binds”. Regarding B2, the binding result in data set [1] and in data set [2] was “binds” in each case.

Regarding B3, in data set [1], the binding result was “binds”. For the molecule B4, the binding result in data set [1] is given as “binds”.

Turning to B5, the binding result in data set [1] is listed as “binds”. In data set [3], the “stoichiometry N” value was 2.

The record behind these values is paper PMC11811891, “Structural insights into human TFIIIC promoter recognition” (Science Advances, 2023).
